Results taken from article PMC8211817.

Substrate: N[C@@H](CC(=O)O)C(=O)O
Assay: purified protein
Conditions: 300 mM Na+ outside, pH 7, 10 mM potassium phosphate, valinomycin, 300 mM KCl in lumen, mixed membrane orientation, no sybody, labelled compound

B1: GltTk (Thermococcus kodakarensis KOD1) (protein)
chain: MGKSLLRRYLDYPVLWKILWGLVLGAVFGLIAGHFGYAGAVKTYIKPFGDLFVRLLKMLVMPIVLASLVVGAASISPARLGRVGVKIVVYYLATSAMAVFFGLIVGRLFNVGANVNLGSGTGKAIEAQPPSLVQTLLNIVPTNPFASLAKGEVLPVIFFAIILGIAITYLMNRNEERVRKSAETLLRVFDGLAEAMYLIVGGVMQYAPIGVFALIAYVMAEQGVRVVGPLAKVVGAVYTGLFLQIVITYFILLKVFGIDPIKFIRKAKDAMITAFVTRSSSGTLPVTMRVAEEEMGVDKGIFSFTLPLGATINMDGTALYQGVTVLFVANAIGHPLTLGQQLVVVLTAVLASIGTAGVPGAGAIMLAMVLQSVGLDLTPGSPVALAYAMILGIDAILDMGRTMVNVTGDLAGTVIVAKTEKELDESKWIS
Km: 0.70 ± 0.22 µM | kcat: 0.895 s⁻¹
